Experimental data taken from US6777540 (dated 2004).
Numbering of substitutions follows the chain as printed.

T1: Fas ligand peptide YPQDLVMMEGKMMSY (218-232 positions) (human)
T1 construct: Synthetic 15-mer immobilized on a PepSet pin
T1 peptide: YPQDLVMMEGKMMSY

T2: Fas ligand peptide VMMEGKMMSYCTTGQ (223-237 positions) (human)
T2 construct: Synthetic 15-mer immobilized on a PepSet pin
T2 peptide: VMMEGKMMSYCTTGQ

T3: Fas ligand peptide KMMSYCTTGQMWARS (228-242 positions) (human)
T3 construct: Synthetic 15-mer immobilized on a PepSet pin
T3 peptide: KMMSYCTTGQMWARS

T4: soluble Fas ligand molecule (human Fas ligand released into the supernatant of COS cells transfected with … (human, UniProt P48023 130-281, limits assumed))
T4 sequence (looked up): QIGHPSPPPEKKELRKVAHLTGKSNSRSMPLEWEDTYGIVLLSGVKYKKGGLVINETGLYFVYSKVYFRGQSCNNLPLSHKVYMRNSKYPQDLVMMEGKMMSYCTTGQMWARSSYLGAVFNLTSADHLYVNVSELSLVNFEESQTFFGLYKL

B1: NOK2 antibody (mouse anti-Fas ligand monoclonal antibody of hybridoma NOK2, FERM BP-5045) (antibody, V domains shown)
VH: QVHLQQSGAELVRPGTSVKMSCKAAGYTFTNYWIGWVKQRPGHGLEWIGYLYPGGLYTNYNEKFKGKATLTADTSSSTAYMQLSSLTSEDSAIYYCARYRDYDYAMDYWGQGTSVTVSS
VL: DVVLTQTPLSLPVNIGDQASISCKSTKSLLNSDGFTYLGWCLQKPGQSPQLLIYLVSNRFSGVPDRFSGSGSGTDFTLKISRVEAEDLGVYYCFQSNYLPLTFGSGTKLEIKR
notes: Mouse IgG, purified on protein G; kappa light chain; Those are derived from the cloned PCR product and may hold leader or primer residues; also called mouse NOK2 immunoglobulin; NOK2 immunoglobulin
B2: RNOK201 (humanized NOK2 antibody, RNOK2VHver11 with RNOK2VLver1) (antibody, V domains shown)
VH: QVQLVQSGAEVKKPGASVKVSCKASGYTFTNYWIGWVKQAPGQGLEWIGYLYPGGLYTNYNEKFKGKATMTADTSTNTAYMELSSLRSEDTAVYYCARYRDYDYAMDYWGQGTLVTVSS
VL: DVVMTQTPSSLSASVGDRASISCKSTKSLLNSDGFTYLGWCQQKPGQSPQLLIYLVSNRFSGVPDRFSGSGSGTDFTLKISSLQPEDIATYYCFQSNYLPLTFGQGTKVEIKR
B3: RNOK202 (humanized NOK2 antibody, RNOK2VHver11 with RNOK2VLver21) (antibody, V domains shown)
VH: B2 VH
VL: B1 VL with L4M, N14T, I15P, D17E, Q18P, L88V, S105Q
B4: RNOK203 (humanized NOK2 antibody, RNOK2VHver11 with RNOK2VLver22) (antibody, V domains shown)
VH: B2 VH
VL: B1 VL with L4M, N14T, I15L, D17Q, Q18P, L88V, S105Q

How the values were obtained:
[1] = target: T1, Fas ligand peptide YPQDLVMMEGKMMSY …; assay: PepSet pin ELISA, hybridoma culture supernatant, HRP anti-mouse IgG
Procedure: (§1) (9) After removal of the pins of PepSet from the plate, 50 μl of 2N H_2SO_4 was added to the wells to quench the reaction.
(§2) Thus, it has been shown that the anti-Fas ligand antibody produced by NOK1 and NOK4 hybridomas recognize the region, […]-[…] (SEQ ID NO:139), of Fas ligand, whereas the anti-Fas ligand antibody of NOK2 hybridoma recognizes the region, […]-[…] (SEQ ID NO:140), of Fas ligand.

[2] = target: T2, Fas ligand peptide VMMEGKMMSYCTTGQ …; assay: as above
Procedure: as §1, §2

[3] = target: T3, Fas ligand peptide KMMSYCTTGQMWARS …; assay: as above
Procedure: as §1, §2

[4] = target: T4, soluble Fas ligand molecule (human Fas …); assay: cell-based or functional assay

Binder	binding result [1]	binding result [2]	binding result [3]	apoptosis inhibition: viable rate of Fas-WR19L target cells with soluble Fas ligand, Alamar Blue fluorescence, 17 h [4] [%]
B1	binds	binds	binds	
B2				≥ 90
B3				≥ 90
B4				≥ 90
